In patent US5786328A, “Use of kunitz type plasma kallikrein inhibitors” (Genentech, Inc., priority 1995, dated 1998):

Legend:
Test in all cases: Specificity assay, fraction of remaining proteolytic activity
Format in all cases: biochemical
Factor Xa = molecular target: T1, Factor Xa (Homo sapiens, UniProt P00742); settings: 100 nM inhibitor; 2.5 nM enzyme
T1 construct: purchased Haematologic Technologies Inc. (Essex Jct., VT)
Method: (§1) Aliquots (30 μL) of various inhibitors diluted to 500 nM were incubated with each protease (100 μL) in the appropriate buffer. After incubation of the substrate/inhibitor mixes at room temperature for 2 h, the appropriate substrate (20 μL) was added, and the absorbance at 405 nm was monitored. Controls lacking inhibitor and enzyme were assayed to measure the uninhibited and substrate hydrolysis rates, respectively. […] The FXIa assay also contained 1 mg/mL BSA. The concentration of FXIa throughout refers to the concentration of active sites. For this experiment, the concentrations of thrombin, TF-FVIIa, FXa, FXIa, FXIIa, and plasmin are 25 approximate and are determined based upon the manufacturers, specifications.
(§2) Serine proteases (1 to 20 nM) were assayed in the presence of 100 nM inhibitor.

TF-FVIIa = molecular target: T2, TF-FVIIa (Homo sapiens, UniProt P08709); settings: 100 nM inhibitor; TF 77 nM, FVIIa 14 nM
T2 construct: purchased Haematologic Technologies Inc. (Essex Jct., VT) for FVIIa; TF made in house; host or cells: TF1-243: E. coli
Method: as §1, §2

activated protein C = molecular target: T3, activated protein C (Homo sapiens, UniProt P04070); settings: 100 nM inhibitor; 7.6 nM enzyme
T3 construct: purchased Haematologic Technologies Inc. (Essex Jct., VT)
Method: as §1, §2

Factor XIa = molecular target: T4, Factor XIa (Homo sapiens, UniProt P03951); settings: 100 nM inhibitor; […] enzyme
T4 construct: purchased Haematologic Technologies Inc. (Essex Jct., VT)
Method: as §1, §2

Factor XIIa = molecular target: T5, Factor XIIa (Homo sapiens, UniProt P00748); settings: 100 nM inhibitor; 14 nM enzyme
T5 construct: purchased Enzyme Research Laboratories, Inc. (South Bend, Ind)
T5 sequence (P00748 20-372 limits assumed): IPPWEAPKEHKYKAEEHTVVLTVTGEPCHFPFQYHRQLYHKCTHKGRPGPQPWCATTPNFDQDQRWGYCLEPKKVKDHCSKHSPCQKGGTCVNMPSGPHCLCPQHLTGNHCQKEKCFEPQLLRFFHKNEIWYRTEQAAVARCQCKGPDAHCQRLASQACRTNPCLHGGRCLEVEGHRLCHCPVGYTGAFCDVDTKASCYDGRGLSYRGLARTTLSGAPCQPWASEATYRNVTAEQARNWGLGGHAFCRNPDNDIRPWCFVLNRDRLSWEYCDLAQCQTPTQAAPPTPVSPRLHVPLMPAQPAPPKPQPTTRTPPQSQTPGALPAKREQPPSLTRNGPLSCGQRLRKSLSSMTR
T5 sequence (P00748 373-615 limits assumed): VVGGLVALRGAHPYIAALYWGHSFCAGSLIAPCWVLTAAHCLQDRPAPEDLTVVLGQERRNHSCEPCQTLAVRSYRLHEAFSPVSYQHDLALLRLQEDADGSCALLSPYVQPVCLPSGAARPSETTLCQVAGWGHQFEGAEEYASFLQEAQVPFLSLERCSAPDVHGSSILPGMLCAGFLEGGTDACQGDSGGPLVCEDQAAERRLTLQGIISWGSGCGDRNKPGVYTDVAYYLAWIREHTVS
Method: as §1, §2

thrombin = molecular target: T6, thrombin (Homo sapiens, UniProt P00734); settings: 100 nM inhibitor; 6.2 nM enzyme
T6 construct: purchased Haematologic Technologies Inc. (Essex Jct., VT)
Method: as §1, §2

plasma kallikrein = molecular target: T7, plasma kallikrein (Homo sapiens, UniProt P03952); settings: 100 nM inhibitor; 3.5 nM enzyme
T7 construct: Human plasma kallikrein and Factor XIIa were purchased; purchased Enzyme Research Laboratories, Inc. (South Bend, Ind)
Method: as §1, §2

plasmin = molecular target: T8, plasmin (Homo sapiens, UniProt P00747); settings: 100 nM inhibitor; 32 nM enzyme
T8 construct: Human plasmin, S-2302, S-2251, and S-2366 were purchased from Kabi Vitrum (Sweden); purchased Kabi Vitrum (Sweden)
T8 sequence (P00747 97-580 limits assumed): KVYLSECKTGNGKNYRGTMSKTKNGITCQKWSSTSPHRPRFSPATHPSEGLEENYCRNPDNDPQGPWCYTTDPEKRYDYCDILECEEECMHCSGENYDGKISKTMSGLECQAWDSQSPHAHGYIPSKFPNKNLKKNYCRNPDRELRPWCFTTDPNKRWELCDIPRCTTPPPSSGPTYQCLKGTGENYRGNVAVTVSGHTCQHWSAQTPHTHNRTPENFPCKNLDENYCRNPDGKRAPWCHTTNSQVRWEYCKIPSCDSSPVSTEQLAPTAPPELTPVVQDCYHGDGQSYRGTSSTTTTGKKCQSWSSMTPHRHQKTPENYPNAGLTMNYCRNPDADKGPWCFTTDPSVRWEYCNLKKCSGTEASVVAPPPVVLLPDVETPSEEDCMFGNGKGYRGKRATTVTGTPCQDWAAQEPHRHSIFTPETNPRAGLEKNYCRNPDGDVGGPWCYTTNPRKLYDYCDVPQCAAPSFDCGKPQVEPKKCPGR
T8 sequence (P00747 581-810 limits assumed): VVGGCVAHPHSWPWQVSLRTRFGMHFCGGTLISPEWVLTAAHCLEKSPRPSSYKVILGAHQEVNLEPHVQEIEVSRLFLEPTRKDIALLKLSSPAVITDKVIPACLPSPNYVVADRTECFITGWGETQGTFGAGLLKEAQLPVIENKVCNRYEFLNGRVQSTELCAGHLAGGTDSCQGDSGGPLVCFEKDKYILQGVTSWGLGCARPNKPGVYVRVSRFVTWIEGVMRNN
Method: as §1, §2

T7 sequence (P03952 20-390 limits assumed): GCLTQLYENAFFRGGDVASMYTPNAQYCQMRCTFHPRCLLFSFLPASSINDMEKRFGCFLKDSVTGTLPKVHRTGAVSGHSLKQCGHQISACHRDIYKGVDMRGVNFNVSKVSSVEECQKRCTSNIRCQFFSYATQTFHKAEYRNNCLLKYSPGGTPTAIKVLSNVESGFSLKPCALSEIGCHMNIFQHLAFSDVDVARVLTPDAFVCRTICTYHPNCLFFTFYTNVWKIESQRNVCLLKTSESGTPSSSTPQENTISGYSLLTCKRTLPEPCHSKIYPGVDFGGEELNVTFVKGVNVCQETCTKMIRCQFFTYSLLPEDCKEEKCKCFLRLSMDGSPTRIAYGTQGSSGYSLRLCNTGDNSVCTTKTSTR
T7 sequence (P03952 391-638 limits assumed): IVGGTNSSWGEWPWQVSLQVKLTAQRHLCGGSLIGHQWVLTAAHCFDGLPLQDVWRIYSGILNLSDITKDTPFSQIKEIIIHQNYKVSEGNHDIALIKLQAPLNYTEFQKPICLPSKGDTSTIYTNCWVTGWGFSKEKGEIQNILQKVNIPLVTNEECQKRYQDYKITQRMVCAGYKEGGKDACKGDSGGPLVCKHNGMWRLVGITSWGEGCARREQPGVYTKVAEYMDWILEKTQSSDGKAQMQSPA
T2 sequence (P08709 61-212 limits assumed): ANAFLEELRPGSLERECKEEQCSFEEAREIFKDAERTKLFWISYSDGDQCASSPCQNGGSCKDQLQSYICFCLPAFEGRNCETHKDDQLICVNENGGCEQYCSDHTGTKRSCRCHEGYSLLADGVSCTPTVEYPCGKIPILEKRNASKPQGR
T2 sequence (P08709 213-466 limits assumed): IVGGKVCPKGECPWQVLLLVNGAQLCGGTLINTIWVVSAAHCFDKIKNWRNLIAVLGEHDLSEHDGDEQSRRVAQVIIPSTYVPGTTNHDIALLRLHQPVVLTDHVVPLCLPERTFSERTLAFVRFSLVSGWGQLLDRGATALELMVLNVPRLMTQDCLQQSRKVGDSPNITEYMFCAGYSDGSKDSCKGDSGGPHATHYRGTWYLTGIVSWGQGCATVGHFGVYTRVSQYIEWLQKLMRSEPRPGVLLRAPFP
T2 sequence (P13726 33-275 partner limits assumed): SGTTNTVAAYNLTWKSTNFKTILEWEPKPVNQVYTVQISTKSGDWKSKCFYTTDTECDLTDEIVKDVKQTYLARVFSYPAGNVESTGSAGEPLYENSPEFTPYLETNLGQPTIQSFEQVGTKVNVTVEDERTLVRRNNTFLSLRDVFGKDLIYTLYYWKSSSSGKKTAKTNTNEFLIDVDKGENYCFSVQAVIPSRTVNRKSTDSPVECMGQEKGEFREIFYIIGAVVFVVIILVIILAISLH
T4 sequence (P03951 19-387 limits assumed): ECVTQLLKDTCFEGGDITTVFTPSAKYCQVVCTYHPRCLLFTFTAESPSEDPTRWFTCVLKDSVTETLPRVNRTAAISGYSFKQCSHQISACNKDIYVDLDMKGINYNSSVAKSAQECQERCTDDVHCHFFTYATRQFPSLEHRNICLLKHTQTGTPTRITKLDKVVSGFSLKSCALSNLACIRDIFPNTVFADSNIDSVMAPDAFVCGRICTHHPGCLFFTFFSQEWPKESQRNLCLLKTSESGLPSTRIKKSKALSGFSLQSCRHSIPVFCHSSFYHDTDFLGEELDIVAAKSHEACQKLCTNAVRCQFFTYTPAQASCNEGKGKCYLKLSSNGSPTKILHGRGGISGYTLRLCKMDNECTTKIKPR
T4 sequence (P03951 388-625 limits assumed): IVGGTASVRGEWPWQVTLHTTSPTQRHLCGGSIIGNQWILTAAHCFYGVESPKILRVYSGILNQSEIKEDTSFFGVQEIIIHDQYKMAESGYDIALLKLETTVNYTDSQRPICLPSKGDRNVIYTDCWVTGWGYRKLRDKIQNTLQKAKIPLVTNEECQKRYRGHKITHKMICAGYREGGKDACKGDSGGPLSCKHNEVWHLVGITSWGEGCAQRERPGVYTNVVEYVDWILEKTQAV
T1 sequence (P00742 41-179 limits assumed): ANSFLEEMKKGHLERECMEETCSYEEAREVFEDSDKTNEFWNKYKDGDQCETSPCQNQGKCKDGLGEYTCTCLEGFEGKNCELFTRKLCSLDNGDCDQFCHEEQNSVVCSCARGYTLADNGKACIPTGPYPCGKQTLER
T1 sequence (P00742 235-488 limits assumed): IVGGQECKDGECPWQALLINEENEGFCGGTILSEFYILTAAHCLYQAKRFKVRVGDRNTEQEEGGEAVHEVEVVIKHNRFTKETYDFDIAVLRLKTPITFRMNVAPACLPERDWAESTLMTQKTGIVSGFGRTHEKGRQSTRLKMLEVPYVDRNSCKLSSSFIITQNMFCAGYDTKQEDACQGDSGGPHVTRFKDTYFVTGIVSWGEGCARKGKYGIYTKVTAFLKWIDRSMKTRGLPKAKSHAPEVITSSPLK
T3 sequence (P04070 43-197 limits assumed): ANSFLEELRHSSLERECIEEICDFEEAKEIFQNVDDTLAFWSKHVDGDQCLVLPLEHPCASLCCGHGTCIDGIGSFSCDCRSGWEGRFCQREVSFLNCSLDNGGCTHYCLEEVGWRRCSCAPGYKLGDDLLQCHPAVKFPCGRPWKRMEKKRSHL
T3 sequence (P04070 212-461 limits assumed): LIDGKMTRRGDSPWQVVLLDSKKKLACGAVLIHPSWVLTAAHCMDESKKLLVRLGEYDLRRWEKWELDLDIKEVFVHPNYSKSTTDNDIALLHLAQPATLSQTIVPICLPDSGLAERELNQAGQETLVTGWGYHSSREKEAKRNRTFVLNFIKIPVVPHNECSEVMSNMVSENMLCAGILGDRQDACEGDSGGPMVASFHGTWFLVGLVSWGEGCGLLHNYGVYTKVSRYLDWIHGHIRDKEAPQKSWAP

Substance: KALI-13: APPI Kunitz domain mutant, R1 SGHCRAAIPR2 FR3 (SEQ ID NO: 1) (VREVCSEQAESGHCRAAIPRWYFDVTEGKCAPFFYGGCGGNRNNFDTEEYCAAVCGSA)
- fraction of remaining proteolytic activity, Factor Xa (Factor Xa): 0.97
- fraction of remaining proteolytic activity, TF·Factor VIIa (TF-FVIIa): 0.96
- fraction of remaining proteolytic activity, activated protein C (activated protein C): 0.90
- fraction of remaining proteolytic activity, Factor XIa (Factor XIa): 0.01
- fraction of remaining proteolytic activity, Factor XIIa (Factor XIIa): 1.00
- fraction of remaining proteolytic activity, thrombin (thrombin): 0.96
- fraction of remaining proteolytic activity, plasma kallikrein (plasma kallikrein): 0.00
- fraction of remaining proteolytic activity, plasmin (plasmin): 0.65

Substance: KALI-46: APPI Kunitz domain mutant, R1 EGRCRASILR2 FR3 (SEQ ID NO: 33) (VREVCSEQAEEGRCRASILRWYFDVTEGKCAPFFYGGCGGNRNNFDTEEYCAAVCGSA)
- fraction of remaining proteolytic activity, TF·Factor VIIa (TF-FVIIa): 0.86
- fraction of remaining proteolytic activity, activated protein C (activated protein C): 0.83
- fraction of remaining proteolytic activity, Factor XIa (Factor XIa): 0.00
- fraction of remaining proteolytic activity, Factor XIIa (Factor XIIa): 0.97
- fraction of remaining proteolytic activity, thrombin (thrombin): 0.99
- fraction of remaining proteolytic activity, plasma kallikrein (plasma kallikrein): 0.00
- fraction of remaining proteolytic activity, plasmin (plasmin): 0.64

Substance: KALI-30: APPI Kunitz domain mutant, R1 EGHCRAAILR2 FR3 (SEQ ID NO: 5) (VREVCSEQAEEGHCRAAILRWYFDVTEGKCAPFFYGGCGGNRNNFDTEEYCAAVCGSA)
- fraction of remaining proteolytic activity, Factor Xa (Factor Xa): 0.68
- fraction of remaining proteolytic activity, activated protein C (activated protein C): 0.81
- fraction of remaining proteolytic activity, Factor XIa (Factor XIa): 0.00
- fraction of remaining proteolytic activity, Factor XIIa (Factor XIIa): 0.92
- fraction of remaining proteolytic activity, thrombin (thrombin): 1.00
- fraction of remaining proteolytic activity, plasma kallikrein (plasma kallikrein): 0.00
- fraction of remaining proteolytic activity, plasmin (plasmin): 0.53

Substance: KALI-8: APPI Kunitz domain mutant, R1 LGHCRAAIPR2 FR3 (SEQ ID NO: 3) (VREVCSEQAELGHCRAAIPRWYFDVTEGKCAPFFYGGCGGNRNNFDTEEYCAAVCGSA)
- fraction of remaining proteolytic activity, TF·Factor VIIa (TF-FVIIa): 0.94
- fraction of remaining proteolytic activity, activated protein C (activated protein C): 0.89
- fraction of remaining proteolytic activity, Factor XIa (Factor XIa): 0.00
- fraction of remaining proteolytic activity, Factor XIIa (Factor XIIa): 1.00
- fraction of remaining proteolytic activity, thrombin (thrombin): 0.99
- fraction of remaining proteolytic activity, plasma kallikrein (plasma kallikrein): 0.00
- fraction of remaining proteolytic activity, plasmin (plasmin): 0.83

Substance: KALI-48: APPI Kunitz domain mutant, R1 TGHCRAAIPR2 FR3 (SEQ ID NO: 2) (VREVCSEQAETGHCRAAIPRWYFDVTEGKCAPFFYGGCGGNRNNFDTEEYCAAVCGSA)
- fraction of remaining proteolytic activity, Factor Xa (Factor Xa): 0.55
- fraction of remaining proteolytic activity, TF·Factor VIIa (TF-FVIIa): 0.95
- fraction of remaining proteolytic activity, activated protein C (activated protein C): 0.92
- fraction of remaining proteolytic activity, Factor XIa (Factor XIa): 0.01
- fraction of remaining proteolytic activity, Factor XIIa (Factor XIIa): 0.99
- fraction of remaining proteolytic activity, thrombin (thrombin): 0.99
- fraction of remaining proteolytic activity, plasma kallikrein (plasma kallikrein): 0.00
- fraction of remaining proteolytic activity, plasmin (plasmin): 0.23
